In US5416015A, “Isolated genes encoding peptidyl prolyl-cis.trans-isomerase and plasmids comprising said genes” (Tonen Corporation, priority 1989, dated 1995):

Assay: Specific activity of enzyme (PPIase activity measurement)
Type: biochemical
Conditions: recombinant E. coli PPIase-β, FIG. 26
Text: As a result, the specific activity of the natural enzyme was.51,480 arbitrary units/[…] 1 unit, while that of the recombinant enzyme was 52,876 arbitrary units/A280 1 unit. Thus, no distinction could be made on specific activity (FIG. 26).

B1: recombinant enzyme: E. coli PPIase-β produced by E. coli HB101 transformed with expression plasmid pATtrp EPPIb (protein, UniProt P23869 1-164, looked up)
Peptidyl-prolyl cis-trans …: MVTFHTNHGDIVIKTFDDKAPETVKNFLDYCREGFYNNTIFHRVINGFMIQGGGFEPGMKQKATKEPIKNEANNGLKNTRGTLAMARTQAPHSATAQFFINVVDNDFLNFSGESLQGWGYCVFAEVVDGMDVVDKIKGVATGRSGMHQDVPKEDVIIESVTVSE
specific activity: 52,876 arbitrary units/A280 1 unit
